Consider 16 molecules from patent publication US20250011428A1 (Novartis, published 2025).

Changes are numbered by the printed parent chain.

Test [1] addresses T1, recombinant human hFcγR1a (human, UniProt P12314 16-288, limits assumed).
T1 construct: recombinant, analyte in SPR; also called FcγRI
As to the kind of experiment: SPR Biacore T200; IgG amine-coupled on CM5, receptor as analyte; response normalized to parental (=100).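 Also: measured at room temperature in pH 7.6 phosphate buffer with Tween 20, double-referenced sensorgrams, maximum response taken as binding capacity at saturation.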 A general note: SPR reads the build-up and loss of mass on a sensor chip optically.
Method: (§1) Kinetics and binding capacity were measured on a BIAcore® T200 instrument (GE Healthcare, Glattbrugg, Switzerland) at room temperature, with proteins diluted in running buffer 10 mM NaP, 150 mM NaCl, 0.05% Tween 20, pH7.6. A CM5 sensor chip (Sensor Chip SA, GE Healthcare Life Sciences) was used to immobilized engineered immunoglobulins by amine coupling. Then, recombinant human hFcγR1a, or recombinant human hFcγR3a (F158V), or recombinant human hFcRn, or hC1q was used as the analyte.
(§2) Binding data were acquired by subsequent injection of analyte dilution series on the reference and measuring flow cells. Zero concentration samples (running buffer only) were included to allow double referencing during data evaluation. For data evaluation, doubled referenced sensorgrams were analyzed and the maximum response reached during the experiment was monitored. Maximum response describes the binding capacity of the surface in terms of the response at saturation. Finally, measured maximum responses were normalized to the one measured using parental immunoglobulin (not engineered).

The target in test [2] is T2, recombinant human hFcγR3a (F158V) (human, UniProt P08637 17-208).
T2 construct: also called FcγRIII
T2 sequence (P08637 17-208 F176V): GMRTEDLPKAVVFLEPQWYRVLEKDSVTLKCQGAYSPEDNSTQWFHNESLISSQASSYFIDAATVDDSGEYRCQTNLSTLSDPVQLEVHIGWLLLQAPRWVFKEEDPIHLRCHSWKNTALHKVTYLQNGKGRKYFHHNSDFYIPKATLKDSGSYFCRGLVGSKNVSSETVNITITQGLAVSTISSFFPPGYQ
Described as above.
Method: as §1, §2

Test [3] has as its target T3, hCD3epsilon-FC antigen (human, UniProt P07766 23-126).
T3 construct: immobilized by amine coupling on CM5; also called human CD3epsilon
As to the kind of experiment: SPR Biacore T200; hCD3epsilon-FC amine-coupled on CM5, IgG as analyte; 1:1 model, apparent KD (bivalent analyte).
Method: A CM5 sensor chip (Sensor Chip SA, GE Healthcare Life Sciences) was used to immobilize hCD3epsilon-FC antigen by amine coupling. Then, engineered anti-CD3 hIgG1 were used as the analyte.
Binding data were acquired by subsequent injection of analyte dilution series on the reference and measuring flow cells. Zero concentration samples (running buffer only) were included to allow double referencing during data evaluation. For data evaluation, doubled referenced sensorgrams were analyzed by applying a 1:1 binding model analysis to generate the equilibrium dissociation constant (KD). Binding constant described Table 7 are considered as apparent KD since immunoglobulins used as analyte are bivalent for the immobilized antigen. In addition, maximum response reached during the experiment was monitored. Maximum response describes the binding capacity of the surface in terms of the response at saturation. Finally, measured maximum responses were normalized to the one measured using parental immunoglobulin (not engineered).

The target in test [4] is T3, hCD3epsilon-FC antigen. As to the kind of experiment: SPR Biacore T200; hCD3epsilon-FC amine-coupled on CM5, IgG as analyte. Set-up: unit not given here.
Another test addresses T4, recombinant human hFcRn (human, UniProt P55899 24-297; P61769 21-119).
T4 construct: FcRn is normally a heterodimer with it
As to the kind of experiment: SPR Biacore T200; IgG amine-coupled on CM5, hFcRn as analyte; response normalized to parental (=100).

The target in a further test is hC1q (human, UniProt P02745 23-245; P02746 28-253; P02747 29-245). As to the kind of experiment: SPR Biacore T200; IgG amine-coupled on CM5, hC1q as analyte; response normalized to parental (=100).
hC1q, sequence (P02745 23-245 limits assumed, chain 1 of 3): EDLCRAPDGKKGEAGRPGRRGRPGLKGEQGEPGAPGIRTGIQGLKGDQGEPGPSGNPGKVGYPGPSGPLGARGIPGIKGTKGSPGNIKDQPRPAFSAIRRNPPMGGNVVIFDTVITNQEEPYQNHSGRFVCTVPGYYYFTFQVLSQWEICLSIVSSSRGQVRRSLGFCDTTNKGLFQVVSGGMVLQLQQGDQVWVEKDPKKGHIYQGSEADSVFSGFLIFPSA
hC1q, sequence (P02746 28-253 limits assumed, chain 2 of 3): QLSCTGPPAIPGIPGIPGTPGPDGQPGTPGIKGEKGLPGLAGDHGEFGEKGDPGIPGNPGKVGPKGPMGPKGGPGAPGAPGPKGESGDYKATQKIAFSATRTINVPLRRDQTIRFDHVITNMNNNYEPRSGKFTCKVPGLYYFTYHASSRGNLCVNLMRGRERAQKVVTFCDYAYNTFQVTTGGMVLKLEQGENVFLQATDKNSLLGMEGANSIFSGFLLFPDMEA
hC1q, sequence (P02747 29-245 limits assumed, chain 3 of 3): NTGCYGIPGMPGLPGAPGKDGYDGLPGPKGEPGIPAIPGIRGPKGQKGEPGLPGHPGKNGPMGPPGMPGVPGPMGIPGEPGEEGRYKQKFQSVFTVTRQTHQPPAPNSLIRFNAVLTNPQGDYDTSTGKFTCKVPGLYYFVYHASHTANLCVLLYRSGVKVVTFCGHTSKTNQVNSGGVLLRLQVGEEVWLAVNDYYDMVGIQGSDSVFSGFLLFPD

T1 sequence (P12314 16-288 limits assumed): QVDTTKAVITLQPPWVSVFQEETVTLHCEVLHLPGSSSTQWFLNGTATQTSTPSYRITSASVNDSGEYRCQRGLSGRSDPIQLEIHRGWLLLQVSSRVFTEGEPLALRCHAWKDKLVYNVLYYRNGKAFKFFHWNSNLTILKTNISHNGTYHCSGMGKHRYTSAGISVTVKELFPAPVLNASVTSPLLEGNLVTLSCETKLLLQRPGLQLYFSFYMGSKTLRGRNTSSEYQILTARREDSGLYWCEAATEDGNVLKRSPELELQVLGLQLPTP
T4 sequence (P55899 24-297 limits assumed, chain 1 of 2): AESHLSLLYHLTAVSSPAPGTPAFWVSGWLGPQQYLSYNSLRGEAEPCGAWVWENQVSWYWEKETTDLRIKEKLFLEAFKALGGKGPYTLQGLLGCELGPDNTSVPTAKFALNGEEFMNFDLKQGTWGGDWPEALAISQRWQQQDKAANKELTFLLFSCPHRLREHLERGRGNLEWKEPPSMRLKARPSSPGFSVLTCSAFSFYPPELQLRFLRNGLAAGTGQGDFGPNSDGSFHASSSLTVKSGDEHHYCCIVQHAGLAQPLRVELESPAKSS
T4 sequence (P61769 21-119 limits assumed, chain 2 of 2): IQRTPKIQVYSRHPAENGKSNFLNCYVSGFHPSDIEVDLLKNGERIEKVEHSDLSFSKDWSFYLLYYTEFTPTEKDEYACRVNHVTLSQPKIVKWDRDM
T3 sequence (P07766 23-126 limits assumed): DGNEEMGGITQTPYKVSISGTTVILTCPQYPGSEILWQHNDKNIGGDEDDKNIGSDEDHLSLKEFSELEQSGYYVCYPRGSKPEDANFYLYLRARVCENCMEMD
Method for hC1q: as §1, §2
Method for recombinant human hFcRn: as §1, §2

B1: CD3_2 (antibody, human IgG1, lambda)
heavy: EVQLVESGGGLVQPGGSLKLSCAASGFTFNTYAMNWVRQASGKGLEWVGRIRSKYNNYATYYADSVKDRFTISRDDSKSTLYLQMNSLKTEDTAVYYCVRHGNFGNSYVSWFAYWGQGTLVTVSSASTKGPSVFPLAPSSKSTSGGTAALGCLVKDYFPEPVTVSWNSGALTSGVHTFPAVLQSSGLYSLSSVVTVPSSSLGTQTYICNVNHKPSNTKVDKRVEPKSCDKTHTCPPCPAPELCCHPSVFLFPPKPKDTLMISRTPEVTCVVVGLRHEDPEVKFNWYVDGVEVHNAKTKPREEQYCGCYRVVSVLTVLHQDWLNGKEYKCKVSNKALPAPIEKTISKAKGQPREPQVYTLPPSRDELTKNQVSLTCLVKGFYPSDIAVEWESNGQPENNYKTTPPVLDSDGSFFLYSKLTVDKSRWQQGNVFSCSVMHEALHNHYTQKSLSLSPGK
light: QAVVTQEPSLTVSPGGTVTLTCRSSTGAVTTSNYANWVQQKPGQAPRGLIGGTNKRAPWTPARFSGSLLGDKAALTLSGAQPEDEAEYFCALWYSNLWVFGGGTKLTVLGQPKAAPSVTLFPPSSEELQANKATLVCLISDFYPGAVTVAWKADSSPVKAGVETTTPSKQSNNKYAASSYLSLTPEQWKSHRSYSCQVTHEGSTVEKTVAPTECS
notes: hIgG1
As for B1, the “Maximum response at 100 nM hFcγR1a (RU)” value in test [1] amounted to 5 RU. In test [2], the “Maximum response at 300 nM hFcγR3a F158V (RU)” value stood at 20 RU. Also, the Kd in the test with hCD3epsilon-FC antigen [3] was found to be 2.24 nM. The “Maximum response at 125 nM hIgG1” value with hCD3epsilon-FC antigen [4] was determined as 386.

B2: CD3_1_YTE (antibody, human IgG1, lambda)
heavy: B1 heavy with S247R, M260Y, S262T, T264E, V272T, H276D, R309S
light: B1 light
notes: hIgG1
In the case of B2, the “Maximum response at 100 nM hFcγR1a (RU)” value in test [1] was 6 RU. Besides, the “Maximum response at 300 nM hFcγR3a F158V (RU)” value in test [2] came out at 20 RU. In the test with recombinant human hFcRn, the “Maximum response at 1840 nM hFcRn (RU)” value came out at 290 RU. In the test with hCD3epsilon-FC antigen [3], the Kd was determined as 2.09 nM. Besides, the “Maximum response at 125 nM hIgG1” value with hCD3epsilon-FC antigen [4] was found to be 371.

B3: CD3_3_YTE (antibody, human IgG1, lambda)
heavy: B1 heavy with M260Y, S262T, T264E, V272T, H276D
light: B1 light
notes: hIgG1
For B3, the “Maximum response at 100 nM hFcγR1a (RU)” value in test [1] worked out at 7 RU. In addition, the “Maximum response at 300 nM hFcγR3a F158V (RU)” value in test [2] is 10 RU. In addition, the Kd in the test with hCD3epsilon-FC antigen [3] is 2.1 nM. In addition, the “Maximum response at 125 nM hIgG1” value in the test with hCD3epsilon-FC antigen [4] was found to be 371.

B4: CD3_11_YTE (antibody, human IgG1, lambda)
heavy: EVQLVESGGGLVQPGGSLKLSCAASGFTFNTYAMNWVRQASGKGLEWVGRIRSKYNNYATYYADSVKDRFTISRDDSKSTLYLQMNSLKTEDTAVYYCVRHGNFGNSYVSWFAYWGQGTLVTVSSASTKGPSVFPLAPSSKSTSGGTAALGCLVKDYFPEPVTVSWNSGALTSGVHTFPAVLQSSGLYSLSSVVTVPSSSLGTQTYICNVNHKPSNTKVDKRVEPKSCDKTHTCPPCPAPELLGGPSVFLFPPKPKDTLYITREPEVTCVVVDVSHEDPEVKFNWYVDGVEVHNAKTKPREEQYCSTYRVVSVLTVLHQDWLNGKEYKCKVSNKALPAPIEKTISKAKGQPREPQVYTLPPSRDELTKNQVSLTCLVKGFYPSDIAVEWESNGQPENNYKTTPPVLDSDGSFFLYSKLTVDKSRWQQGNVFSCSVMHEALHNHYTQKSLSLSPGK
light: B1 light
notes: hIgG1
On to B4, for which the “Maximum response at 100 nM hFcγR1a (RU)” value in test [1] stood at 12 RU. The “Maximum response at 1840 nM hFcRn (RU)” value with recombinant human hFcRn was determined as 230 RU. In addition, the “Maximum response at 20 nM hC1q (RU)” value with hC1q turned out to be 1 RU.

B5: CD3_WT_YTE (antibody, human IgG1, lambda)
heavy: B4 heavy with C305N
light: B1 light
notes: hIgG1
On to B5, for which, in test [1], the “Maximum response at 100 nM hFcγR1a (RU)” value was determined as 97 RU. The “Maximum response at 300 nM hFcγR3a F158V (RU)” value in test [2] was 71 RU. Besides, in the test with recombinant human hFcRn, the “Maximum response at 1840 nM hFcRn (RU)” value came to 586 RU. Also, in the test with hCD3epsilon-FC antigen [3], the Kd amounted to 2.34 nM. Moreover, in the test with hCD3epsilon-FC antigen [4], the “Maximum response at 125 nM hIgG1” value turned out to be 342.

B6: CD3_10 (antibody, human IgG1, lambda)
heavy: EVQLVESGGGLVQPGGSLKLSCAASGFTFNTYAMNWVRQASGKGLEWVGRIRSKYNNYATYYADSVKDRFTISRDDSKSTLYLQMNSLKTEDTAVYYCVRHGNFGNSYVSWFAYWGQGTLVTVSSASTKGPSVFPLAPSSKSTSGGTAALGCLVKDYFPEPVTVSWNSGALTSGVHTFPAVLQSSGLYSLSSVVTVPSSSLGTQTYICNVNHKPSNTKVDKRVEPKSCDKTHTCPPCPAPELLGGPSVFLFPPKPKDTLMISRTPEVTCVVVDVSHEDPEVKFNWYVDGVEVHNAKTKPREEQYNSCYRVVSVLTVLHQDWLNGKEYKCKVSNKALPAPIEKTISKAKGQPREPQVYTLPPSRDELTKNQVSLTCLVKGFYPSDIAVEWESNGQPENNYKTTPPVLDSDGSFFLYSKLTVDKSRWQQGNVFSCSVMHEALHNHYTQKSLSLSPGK
light: B1 light
notes: hIgG1
As to B6, in test [1], the “Maximum response at 100 nM hFcγR1a (RU)” value is 18 RU. In addition, the “Maximum response at 1840 nM hFcRn (RU)” value with recombinant human hFcRn was 126 RU. Moreover, the “Maximum response at 20 nM hC1q (RU)” value in the test with hC1q stood at 3 RU.

B7: CD3_9 (antibody, human IgG1, lambda)
heavy: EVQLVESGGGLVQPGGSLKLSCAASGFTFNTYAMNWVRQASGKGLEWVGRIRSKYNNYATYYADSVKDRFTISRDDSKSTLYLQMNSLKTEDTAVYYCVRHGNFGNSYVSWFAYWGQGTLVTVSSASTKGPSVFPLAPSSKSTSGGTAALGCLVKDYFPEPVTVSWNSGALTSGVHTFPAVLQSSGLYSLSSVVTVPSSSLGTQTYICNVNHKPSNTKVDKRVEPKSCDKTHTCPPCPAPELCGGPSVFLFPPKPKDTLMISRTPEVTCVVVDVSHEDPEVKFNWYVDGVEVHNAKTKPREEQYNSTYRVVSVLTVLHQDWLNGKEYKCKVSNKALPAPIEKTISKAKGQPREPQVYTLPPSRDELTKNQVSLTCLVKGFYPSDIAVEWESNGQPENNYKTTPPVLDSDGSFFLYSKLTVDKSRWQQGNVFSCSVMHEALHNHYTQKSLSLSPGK
light: B1 light
notes: hIgG1
Regarding B7, in test [1], the “Maximum response at 100 nM hFcγR1a (RU)” value was 2 RU. Besides, the “Maximum response at 1840 nM hFcRn (RU)” value with recombinant human hFcRn is 122 RU. For the same molecule, the “Maximum response at 20 nM hC1q (RU)” value with hC1q came to 10 RU.

B8: CD3_8 (antibody, human IgG1, lambda)
heavy: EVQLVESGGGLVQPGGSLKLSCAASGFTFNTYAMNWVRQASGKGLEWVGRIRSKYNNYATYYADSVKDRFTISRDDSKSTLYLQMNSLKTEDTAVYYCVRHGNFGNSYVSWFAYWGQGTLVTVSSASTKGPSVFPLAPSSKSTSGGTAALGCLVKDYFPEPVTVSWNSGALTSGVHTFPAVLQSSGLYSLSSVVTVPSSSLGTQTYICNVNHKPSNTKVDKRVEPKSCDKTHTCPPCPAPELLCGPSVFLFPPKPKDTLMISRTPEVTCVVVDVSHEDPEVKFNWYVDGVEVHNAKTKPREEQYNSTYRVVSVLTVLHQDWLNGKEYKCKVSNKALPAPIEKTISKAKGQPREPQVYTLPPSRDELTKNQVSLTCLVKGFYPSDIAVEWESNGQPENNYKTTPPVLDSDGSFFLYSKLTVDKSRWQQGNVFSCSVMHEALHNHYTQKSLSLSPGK
light: B1 light
notes: hIgG1
B8: the “Maximum response at 100 nM hFcγR1a (RU)” value in test [1] was 2 RU. Besides, the “Maximum response at 1840 nM hFcRn (RU)” value in the test with recombinant human hFcRn came out at 126 RU. In addition, in the test with hC1q, the “Maximum response at 20 nM hC1q (RU)” value amounted to 1 RU.

B9: CD3_9_YTE (antibody, human IgG1, lambda)
heavy: B4 heavy with L243C, C305N
light: B1 light
notes: hIgG1
For B9, the “Maximum response at 100 nM hFcγR1a (RU)” value in test [1] was 2 RU. For the same molecule, the “Maximum response at 1840 nM hFcRn (RU)” value with recombinant human hFcRn is 696 RU. Besides, the “Maximum response at 20 nM hC1q (RU)” value with hC1q was determined as 4 RU.

B10: CD3_7_YTE (antibody, human IgG1, lambda)
heavy: B4 heavy with T307C
light: B1 light
notes: hIgG1
Turning to B10, in test [1], the “Maximum response at 100 nM hFcγR1a (RU)” value was found to be 31 RU. Also, the “Maximum response at 300 nM hFcγR3a F158V (RU)” value in test [2] turned out to be 19 RU. Also, the “Maximum response at 1840 nM hFcRn (RU)” value with recombinant human hFcRn stood at 284 RU. The Kd with hCD3epsilon-FC antigen [3] came out at 2.31 nM. Besides, in the test with hCD3epsilon-FC antigen [4], the “Maximum response at 125 nM hIgG1” value amounted to 367.

B11: CD3_5_YTE (antibody, human IgG1, lambda)
heavy: B4 heavy with L243C, G244C, T307C
light: B1 light
notes: hIgG1
On to B11, for which the “Maximum response at 100 nM hFcγR1a (RU)” value in test [1] was determined as 7 RU. In test [2], the “Maximum response at 300 nM hFcγR3a F158V (RU)” value was 17 RU. Moreover, the “Maximum response at 1840 nM hFcRn (RU)” value with recombinant human hFcRn is 340 RU. The Kd with hCD3epsilon-FC antigen [3] was 3.74 nM. Besides, the “Maximum response at 125 nM hIgG1” value in the test with hCD3epsilon-FC antigen [4] was 322.

B12: CD3_DANAPA (antibody, human IgG1, lambda, N297A)
heavy: B4 heavy with Y260M, T262S, E264T, D273A, C305A, P337A
light: B1 light
notes: hIgG1; silencing benchmark
As to B12, in test [1], the “Maximum response at 100 nM hFcγR1a (RU)” value was found to be 6 RU. In addition, in test [2], the “Maximum response at 300 nM hFcγR3a F158V (RU)” value came out at 10 RU. Also, the “Maximum response at 20 nM hC1q (RU)” value in the test with hC1q was 1 RU. Moreover, in the test with hCD3epsilon-FC antigen [3], the Kd worked out at 3.27 nM. In the test with hCD3epsilon-FC antigen [4], the “Maximum response at 125 nM hIgG1” value is 392.

B13: CD3_3 (antibody, human IgG1, lambda)
heavy: B1 heavy with V272T, H276D
light: B1 light
notes: hIgG1
As for B13, the “Maximum response at 100 nM hFcγR1a (RU)” value in test [1] amounted to 3 RU. Further, the “Maximum response at 300 nM hFcγR3a F158V (RU)” value in test [2] came out at 2 RU. In addition, the Kd with hCD3epsilon-FC antigen [3] came out at 2.04 nM. Further, the “Maximum response at 125 nM hIgG1” value with hCD3epsilon-FC antigen [4] was 375.

B14: CD3_4_YTE (antibody, human IgG1, lambda)
heavy: B4 heavy with L243C, G244C, G245H, S306G, T307C
light: B1 light
notes: hIgG1
Consider B14, for which the “Maximum response at 100 nM hFcγR1a (RU)” value in test [1] amounted to 4 RU. In test [2], the “Maximum response at 300 nM hFcγR3a F158V (RU)” value is 10 RU. The Kd with hCD3epsilon-FC antigen [3] turned out to be 2.74 nM. For the same molecule, the “Maximum response at 125 nM hIgG1” value with hCD3epsilon-FC antigen [4] was found to be 427.

B15: CD3_4 (antibody, human IgG1, lambda)
heavy: B1 heavy with G273D, L274V, R275S
light: B1 light
notes: hIgG1
As to B15, the “Maximum response at 100 nM hFcγR1a (RU)” value in test [1] worked out at 4 RU. For the same molecule, in test [2], the “Maximum response at 300 nM hFcγR3a F158V (RU)” value turned out to be 10 RU. In addition, the Kd with hCD3epsilon-FC antigen [3] is 3.38 nM. Moreover, in the test with hCD3epsilon-FC antigen [4], the “Maximum response at 125 nM hIgG1” value amounted to 470.

B16: CD3_6_YTE (antibody, human IgG1, lambda)
heavy: B4 heavy with L243C, G244C, C305N
light: B1 light
notes: hIgG1
For the molecule B16, in test [1], the “Maximum response at 100 nM hFcγR1a (RU)” value was 10 RU. Besides, the “Maximum response at 300 nM hFcγR3a F158V (RU)” value in test [2] is 15 RU. The “Maximum response at 1840 nM hFcRn (RU)” value with recombinant human hFcRn amounted to 720 RU. For the same molecule, the Kd with hCD3epsilon-FC antigen [3] stood at 2.42 nM. Moreover, the “Maximum response at 125 nM hIgG1” value with hCD3epsilon-FC antigen [4] was 340.
